Test [1] has as its target T1, ESCRT-I complex (TSG101, VPS28, VPS37B, MVB12A), Cy3-labeled (human, UniProt Q99816 1-390; Q9UK41 1-221; Q9H9H4 1-285; Q96EY5 1-273).
T1 construct: TSG101, subunit of human ESCRT-I; VPS28, subunit of human ESCRT-I; VPS37B, subunit of human ESCRT-I; MVB12A, subunit of human ESCRT-I; Labeled with sulpho-Cy3 maleimide on native surface-exposed cysteines; It calls human ESCRT-I a soluble heterotetramer; also called ESCRT-I (Cy3); source: HEK293 cells, purified (StrepTactin Sepharose, gel filtration); copies: + + +
The experiment in a line: recruitment to giant unilamellar vesicles (GUVs), confocal fluorescence microscopy; ESCRT-I/II pathway: ALG-2 200 nM, ESCRT-I (Cy3) 50 nM, with or without ESCRT-II 200 nM and CHMP6 (Atto 488) 400 nM, incubated 15 min in reaction buffer, then 30% DOPS GUVs added and imaged after 15 min; ESCRT-I kept at a concentration at which it did not bind GUVs on its own. The settings on record: both partners purified.

For test [2], the target named is T2, ALIX, full-length, Cy3-labeled (human, UniProt Q8WUM4 1-868, sulpho-Cy3 maleimide on native surface-exposed cysteines).
T2 construct: ALIX (PDCD6IP), ESCRT accessory protein with Bro1 domain, V domain and proline-rich domain; also called ALIX (Cy3); source: HEK293 cells, purified (StrepTactin Sepharose, gel filtration)
T2 sequence (looked up): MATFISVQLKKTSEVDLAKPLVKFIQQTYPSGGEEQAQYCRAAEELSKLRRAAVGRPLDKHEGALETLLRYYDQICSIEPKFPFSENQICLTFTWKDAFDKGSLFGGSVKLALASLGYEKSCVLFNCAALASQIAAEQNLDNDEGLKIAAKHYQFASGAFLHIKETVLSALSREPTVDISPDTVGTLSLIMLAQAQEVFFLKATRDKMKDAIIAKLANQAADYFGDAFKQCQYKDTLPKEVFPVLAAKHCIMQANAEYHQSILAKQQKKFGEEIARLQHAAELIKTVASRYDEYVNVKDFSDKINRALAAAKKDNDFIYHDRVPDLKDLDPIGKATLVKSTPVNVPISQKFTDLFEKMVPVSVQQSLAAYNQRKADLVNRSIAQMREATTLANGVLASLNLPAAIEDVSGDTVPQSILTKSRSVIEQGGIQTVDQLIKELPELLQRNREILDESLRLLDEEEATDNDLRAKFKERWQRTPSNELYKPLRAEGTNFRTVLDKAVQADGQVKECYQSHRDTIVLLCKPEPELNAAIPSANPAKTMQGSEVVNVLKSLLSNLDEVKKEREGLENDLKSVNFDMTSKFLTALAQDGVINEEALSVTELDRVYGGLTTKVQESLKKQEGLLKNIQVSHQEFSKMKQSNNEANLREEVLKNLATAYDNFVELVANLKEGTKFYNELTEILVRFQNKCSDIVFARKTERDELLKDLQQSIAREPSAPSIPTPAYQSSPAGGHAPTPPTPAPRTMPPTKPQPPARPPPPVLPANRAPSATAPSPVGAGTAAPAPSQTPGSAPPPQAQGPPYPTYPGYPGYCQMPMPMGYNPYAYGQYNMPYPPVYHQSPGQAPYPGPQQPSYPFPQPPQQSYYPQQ
The experiment in a line: recruitment to giant unilamellar vesicles (GUVs), confocal fluorescence microscopy; ALIX pathway: ALG-2 200 nM, ALIX 100 nM, with or without CHMP4B 10 nM, incubated 15 min in reaction buffer (25 mM Hepes pH 7.4, 125 mM NaCl, 0.2 mM TCEP), then added to 30% DOPS GUVs and imaged after 15 min at room temperature; read-out: puncta on the GUV periphery and their colocalization. The settings on record: both partners purified.

T1 sequence (Q99816 whole entry, chain 1 of 4, other chains not shown): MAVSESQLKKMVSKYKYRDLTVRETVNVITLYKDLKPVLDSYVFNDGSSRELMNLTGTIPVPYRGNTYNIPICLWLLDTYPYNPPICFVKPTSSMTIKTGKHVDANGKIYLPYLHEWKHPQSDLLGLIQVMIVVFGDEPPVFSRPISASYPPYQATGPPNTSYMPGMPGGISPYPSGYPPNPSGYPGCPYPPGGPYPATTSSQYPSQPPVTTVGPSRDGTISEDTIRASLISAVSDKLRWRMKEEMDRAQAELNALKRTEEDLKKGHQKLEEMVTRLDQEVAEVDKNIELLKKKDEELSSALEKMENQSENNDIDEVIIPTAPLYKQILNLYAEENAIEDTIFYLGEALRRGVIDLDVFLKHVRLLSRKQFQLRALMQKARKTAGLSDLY
T1 sequence (Q9UK41 whole entry, chain 2 of 4, other chains not shown): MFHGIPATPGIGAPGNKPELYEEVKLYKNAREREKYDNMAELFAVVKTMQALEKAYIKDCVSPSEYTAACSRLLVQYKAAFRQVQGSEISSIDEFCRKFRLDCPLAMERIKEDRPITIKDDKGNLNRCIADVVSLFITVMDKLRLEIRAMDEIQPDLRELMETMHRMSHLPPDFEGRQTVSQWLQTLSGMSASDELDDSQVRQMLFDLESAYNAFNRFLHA
T1 sequence (Q9H9H4 whole entry, chain 3 of 4, other chains not shown): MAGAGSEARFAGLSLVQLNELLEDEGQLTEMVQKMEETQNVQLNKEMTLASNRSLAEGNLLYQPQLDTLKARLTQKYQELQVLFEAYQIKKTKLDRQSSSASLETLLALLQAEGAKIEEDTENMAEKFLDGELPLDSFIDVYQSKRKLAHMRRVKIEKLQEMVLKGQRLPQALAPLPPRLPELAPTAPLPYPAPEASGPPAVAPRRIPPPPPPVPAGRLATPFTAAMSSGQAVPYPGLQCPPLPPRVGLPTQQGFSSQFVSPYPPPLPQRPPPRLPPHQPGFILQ

B1: ALG-2, fluorescently labeled (Atto 488) via A78C (natural protein, UniProt O75340 1-191, looked up)
chain: MAAYSYRPGPGAGPGPAAGAALPDQSFLWNVFQRVDKDRSGVISDTELQQALSNGTWTPFNPVTVRSIISMFDRENKCGVNFSEFTGVWKYITDWQNVFRTYDRDNSGMIDKNELKQALSGFGYRLSDQFHDILIRKFDRQGRGQIAFDDFIQGCIVLQRLTDIFRRYDTDQDGWIQVSYEQYLSMVFSIV
modifications: Atto 488 maleimide on the cysteine of A78C (25% labeling efficiency)
notes: also called ALG-2 (Atto 488); labeled ALG-2; source: E. coli BL21 (DE3), purified (Ni-NTA, gel filtration, anion exchange, gel filtration)
B1: the binding result in test [1] and in test [2] was “binds” throughout.

Source of the values: article PMC9436306 (Proceedings of the National Academy of Sciences of the …, 2022).
